Assay [1] has as its target T1, CHOK1-h PD-L1(GenScript M00543)细胞表面PD-L1 (human, UniProt Q9NZQ7 19-290).
T1 construct: whole, on cells; also called 细胞表面抗原PD-L1
Briefly: FACS on CHOK1-hPD-L1 cells.

Assay [2] deals with T1, CHOK1-h PD-L1(GenScript M00543)细胞表面PD-L1. Briefly: FACS competition: blocks Biotin PD-1 mFc binding to CHOK1-hPD-L1 cells.
The target in assay [3] is T2, 生物素标记的人PD-L1(acro，货号:PD1-H82E5) (human, UniProt Q9NZQ7 19-238, biotin label (site not stated)).
T2 construct: Bought biotinylated protein; also called Biotin hPD-L1; BiotinhPD-L1
Briefly: BLI (Octet RED96e), avidity format: Biotin hPD-L1 on SA sensor, antibody in solution. A general note: Biolayer interferometry detects binding as a change in optical thickness at a sensor tip.

The target in assay [4] is T3, 生物素标记的鼠PD-L1(Sino，货号:50010-M08H-B) (mouse, UniProt Q9EP73 19-238, biotin label (site not stated)).
T3 construct: Bought biotinylated protein; also called Biotin mPD-L1
T3 sequence (Q9EP73 19-238 limits assumed, stated change not applied): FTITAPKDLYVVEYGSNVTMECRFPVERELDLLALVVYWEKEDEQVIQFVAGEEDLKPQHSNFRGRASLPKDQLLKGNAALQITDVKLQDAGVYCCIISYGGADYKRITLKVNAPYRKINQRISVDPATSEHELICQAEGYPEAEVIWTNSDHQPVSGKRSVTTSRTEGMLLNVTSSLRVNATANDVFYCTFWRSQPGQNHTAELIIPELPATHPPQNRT
Briefly: BLI (Octet RED96e), avidity format: Biotin mPD-L1 on SA sensor, antibody in solution.

Assay [5] addresses T4, 猴PD-L1-Fc(Acro，货号:PD1-C5253) (monkey (cynomolgus)).
T4 construct: Bought Fc fusion; also called Cyno PD-L1; 食蟹猴PD-L1
Briefly: BLI (Octet RED96e), avidity format: antibody on CH1 sensor, monkey PD-L1-Fc in solution.

In assay [6] the target is T5, 人PD-L1 his(Acro，货号:PD1-H5229) (human, UniProt Q9NZQ7 19-238).
T5 construct: Bought protein; also called human PD-L1 his; not shown: His tag
Briefly: BLI (Octet RED96e), affinity format: antibody on AHC sensor, human PD-L1 his in solution.

As a reminder, the EC50 is the concentration giving half of the maximal effect. As usually defined, the IC50 is the concentration at which inhibition is half-maximal.

B1: Ab1910T2 (antibody, human IgG1, kappa, N297A, V domains shown)
VH: EVQLVESGGGLVQPGGSLRLSCAASGFPFTNYAMSWVRQAPGKGLEWVSSISGSGAGTYYADSVKGRFTISRDNSKNTLYLQMNSLRAEDTAVYYCAKDLFPTIFGVVTTNYMDVWGKGTTVTVSS
VL: DIQMTQSPSSLSASVGDRVTITCRASQSISSYLNWYQQKPGKAPKLLIYSASSLQIGVPSRFSGSGSGTDFTLTISSLQPEDFATYYCQQSYSIPVTFGQGTKVEIKR
notes: Full human IgG1 (Fc N297A) / kappa, made in ExpiCHO; also called 本申请抗PD-L1抗体Ab1910T2; 所述抗PD-L1单克隆抗体
Take B1: the EC50 in assay [1] amounted to 0.02 µg/mL. In assay [2], the IC50 came to 1.02 µg/mL. Also, the Kd in assay [3] was approximately 0.15 nM; in assay [4], approximately 0.58 nM; in assay [5], approximately 0.79 nM; in assay [6], approximately 26 nM.

Source of the values: CN114380913A (SHANGHAI LUBRIGHT MEDICINE TECH CO LTD, dated 2022).
